Source: patent US20230212319A1, “NOVEL ANTIGEN BINDING DOMAINS AND SYNTHETIC ANTIGEN RECEPTORS INCORPORATING THE SAME” (University of Southern California, priority 2020, published 2023)

B1: 22202 (protein)
chain: MALPVTALLLPLALLLHAARPACAGHLEQPQISSTKTLSKTARLECVVSGITISATSVYWYRERPGEVIQFLVSISYDGTVRKESGIPSGKFEVDRIPETSTSTLTIHNVEKQDIATYYCALWEAQQELGKKIKVFGPGTKLIITDKQLDKQLDADVSPKPTIFLPSIAETKLQKAGTYLCLLEKFFPDVIKIHWQEKKSNTILGSQEGNTMKTNDTYMKFSWLTVPEKSLDKEHRCIVRHENNKNGVDQEIIFPPIKTDVITMDPKDNCSKDANDTLLLQLTNTSAYYMYLLLLLKSVVYFAIITCCLLRRTAFCCNGEKSRAKRSGSGATNFSLLKQAGDVEENPGPTSATMDWIWRILFLVGAATGAHSGPQVQLQESGGGLAQAGGSLRLSCAASGRTFSMGWFRQAPGKEREFVAAITYSGGSPYYASSVRGRFTISRDNAKNTVYLQMNSLKPEDTAVYYCAANPTYGSDWNAENWGQGTQVTVSSGSGGGGSGGGGSGGGGSFEAIELVPEHQTVPVSIGVPATLRCSMKGEAIGNYYINWYRKTQGNTMTFIYREKDIYGPGFKDNFQGDIDIAKNLAVLKILAPSERDEGSYYCACDTLGMGGEYTDKLIFGKGTRVTVEPRSQPHTKPSVFVMKNGTNVACLVKEFYPKDIRINLVSSKKITEFDPAIVISPSGKYNAVKLGKYEDSNSVTCSVQHDNKTVHSTDFEVKTDSTDHVKPKETENTKQPSKSCHKPKAIVHTEKVNMMSLTVLGLRMLFAKTVAVNFLLTAKLFFLRAKRSGSGVKQTLNFDLLKLAGDVESNPGPSRAHMTEYKPTVRLATRDDVPRAVRTLAAAFADYPATRHTVDPDRHIERVTELQELFLTRVGLDIGKVWVADDGAAVAVWTTPESVEAGAVFAEIGPRMAELSGSRLAAQQQMEGLLAPHRPKEPAWFLATVGVSPDHQGKGLGSAVVLPGVEAAERAGVPAFLETSAPRNLPFYERLGFTVTADVEVPEGPRTWCMTRKPGA
B2: 22155 (protein)
chain: MALPVTALLLPLALLLHAARPACEVQLLESGGGLIQPGGSLRLSCAASGFTFSSHAMTWVRQAPGKGLEWVSAISGSGDYTHYADSVKGRFTISRDNSKNTVYLQMNSLRAEDSAVYYCAKDEDGGSLLGHRGQGTLVTVSSGTGGGGSGGGGSGGGGSEFSYVLTQPPSVSVAPGQTARITCGGNNIGGKSVHWYQQPPGQAPVVVVYDDSDRPSGIPERFSGSNSGNTATLTISRVEAGDEAVYYCQVWDSSSDHVVFGGGTKLTVLLEADVSPKPTIFLPSIAETKLQKAGTYLCLLEKFFPDVIKIHWQEKKSNTILGSQEGNTMKTNDTYMKFSWLTVPEKSLDKEHRCIVRHENNKNGVDQEIIFPPIKTDVITMDPKDNCSKDANDTLLLQLTNTSAYYMYLLLLLKSVVYFAIITCCLLRRTAFCCNGEKSRAKRSGSGATNFSLLKQAGDVEENPGPTSMDWIWRILFLVGAATGAHSGPQVQLQESGGGLAQAGGSLRLSCAASGRTFSMGWFRQAPGKEREFVAAITYSGGSPYYASSVRGRFTISRDNAKNTVYLQMNSLKPEDTAVYYCAANPTYGSDWNAENWGQGTQVTVSSGSGGGGSGGGGSGGGGSFEQLQLQESGPGLVKPSETLSLTCTVSGGSISSSSYFWGWIRQPPGKGLEWIGSIYYSGITYYNPSLKSRVTISVDTSKNQFSLKLSSVTAADTAVYYCARHDGAVAGLFDYWGQGTLVTVSSATRPHTKPSVFVMKNGTNVACLVKEFYPKDIRINLVSSKKITEFDPAIVISPSGKYNAVKLGKYEDSNSVTCSVQHDNKTVHSTDFEVKTDSTDHVKPKETENTKQPSKSCHKPKAIVHTEKVNMMSLTVLGLRMLFAKTVAVNFLLTAKLFFLRAKRSGSGVKQTLNFDLLKLAGDVESNPGPSRGHMTEYKPTVRLATRDDVPRAVRTLAAAFADYPATRHTVDPDRHIERVTELQELFLTRVGLDIGKVWVADDGAAVAVWTTPESVEAGAVFAEIGPRMAELSGSRLAAQQQMEGLLAPHRPKEPAWFLATVGVSPDHQGKGLGSAVVLPGVEAAERAGVPAFLETSAPRNLPFYERLGFTVTADVEVPEGPRTWCMTRKPGA
B3: 22117 (protein)
chain: MALPVTALLLPLALLLHAARPQLQLQESGPGLVKPSETLSLTCTVSGDSISSGDYYWGWIRQPPGKGLEWIGHIYYSGVTYYNPSLKSRVTISVDTSRNQFSLKLSSVTAADTAVYYCTREDSSNWRSRGQGTLVTVSSLEIQNPDPAVYQLRDSKSSDKSVCLFTDFDSQTNVSQSKDSDVYITDKCVLDMRSMDFKSNSAVAWSNKSDFACANAFNNSIIPEDTFFPSSDVPCDVKLVEKSFETDTNLNFQNLSVIGFRILLLKVAGFNLLMTLRLWSSRAKRSGSGVKQTLNFDLLKLAGDVESNPGPTSTMALPVTALLLPLALLLHAARPQLQLQESGPGLVKPSETLSLTCTVSGDSISSGDYYWGWIRQPPGKGLEWIGHIYYSGVTYYNPSLKSRVTISVDTSRNQFSLKLSSVTAADTAVYYCTREDSSNWRSRGQGTLVTVSSLESGGGGSFEQVQLQQPGAELVKPGASVKMSCKASGYAFSSYWINWMKQKPGQGLEWIGQIYPGDGDTNYNGKFKGRATLTADTSSSTAYMQLSSLTSEDSAVYFCARSITTVVGCAMDYWGQGTSVTVSSTREDLKNVFPPEVAVFEPSKAEIAHTQKATLVCLATGFYPDHVELSWWVNGKEVHSGVCTDPQPLKEQPALNDSRYCLSSRLRVSATFWQNPRNHFRCQVQFYGLSENDEWTQDRAKPVTQIVSAEAWGRADCGITSASYHQGVLSATILYEILLGKATLYAVLVSALVLMAMVKRKDSRGRAKRSGSGATNFSLLKQAGDVEENPGPSRGHMTEYKPTVRLATRDDVPRAVRTLAAAFADYPATRHTVDPDRHIERVTELQELFLTRVGLDIGKVWVADDGAAVAVWTTPESVEAGAVFAEIGPRMAELSGSRLAAQQQMEGLLAPHRPKEPAWFLATVGVSPDHQGKGLGSAVVLPGVEAAERAGVPAFLETSAPRNLPFYERLGFTVTADVEVPEGPRTWCMTRKPGA
B4: 22207 (protein)
chain: MALPVTALLLPLALLLHAARPDIQMTQSPSSLSASVGDRVTITCKASDHINNWLAWYQQKPGQAPKLLIYGATTLETGVPSRFSGSGSGTDYTLTISSLQPEDFATYYCQQSWNTPWTFGQGTKLEIKRLEGQPKANPTVTLFPPSSEELQANKATLVCLISDFYPGAVTVAWKADGSPVKAGVETTKPSKQSNNKYAASSYLSLTPEQWKSHRSYSCQVTHEGSTVEKTVAPTECSPIKTDVITMDPKDNCSKDANDTLLLQLTNTSAYYMYLLLLLKSVVYFAIITCCLLRRTAFCCNGEKSRAKRSGSGATNFSLLKQAGDVEENPGPTSMDWIWRILFLVGAATGAHSFEQVQLQQPGAELVKPGASVKMSCKASGYAFSSYWINWMKQKPGQGLEWIGQIYPGDGDTNYNGKFKGRATLTADTSSSTAYMQLSSLTSEDSAVYFCARSITTVVGCAMDYWGQGTSVTVSSTRSQPHTKPSVFVMKNGTNVACLVKEFYPKDIRINLVSSKKITEFDPAIVISPSGKYNAVKLGKYEDSNSVTCSVQHDNKTVHSTDFEVKTDSTDHVKPKETENTKQPSKSCHKPKAIVHTEKVNMMSLTVLGLRMLFAKTVAVNFLLTAKLFFLRAKRSGSGVKQTLNFDLLKLAGDVESNPGPSRGHMTEYKPTVRLATRDDVPRAVRTLAAAFADYPATRHTVDPDRHIERVTELQELFLTRVGLDIGKVWVADDGAAVAVWTTPESVEAGAVFAEIGPRMAELSGSRLAAQQQMEGLLAPHRPKEPAWFLATVGVSPDHQGKGLGSAVVLPGVEAAERAGVPAFLETSAPRNLPFYERLGFTVTADVEVPEGPRTWCMTRKPGA
B5: 22205 (protein)
chain: MTIRLLCYMGFYFLGAGLMEADIYQTPRYLVIGTGKKITLECSQTMGHDKMYWYQQDPGMELHLIHYSYGVNSTEKGDLSSESTVSRIRTEHFPLTLESARPSHTSQYLCASSEARGLAEFTDTQYFGPGTRLTVLEDLKNVFPPEVAVFEPSEAEISHTQKATLVCLATGFYPDHVELSWWVNGKEVHSGVCTDPQPLKEQPALNDSRYCLSSRLRVSATFWQNPRNHFRCQVQFYGLSENDEWTQDRAKPVTQIVSAEAWGRADCGFTSESYQQGVLSATILYEILLGKATLYAVLVSALVLMAMVKRKDSRGRAKRSGSGATNFSLLKQAGDVEENPGPTSATMDWIWRILFLVGAATGAHSGPQVQLQESGGGLAQAGGSLRLSCAASGRTFSMGWFRQAPGKEREFVAAITYSGGSPYYASSVRGRFTISRDNAKNTVYLQMNSLKPEDTAVYYCAANPTYGSDWNAENWGQGTQVTVSSGSGGGGSGGGGSGGGGSFEQVQLQQPGAELVKPGASVKMSCKASGYAFSSYWINWMKQKPGQGLEWIGQIYPGDGDTNYNGKFKGRATLTADTSSSTAYMQLSSLTSEDSAVYFCARSITTVVGCAMDYWGQGTSVTVSSTRIQNPDPAVYQLRDSKSSDKSVCLFTDFDSQTNVSQSKDSDVYITDKCVLDMRSMDFKSNSAVAWSNKSDFACANAFNNSIIPEDTFFPSPESSCDVKLVEKSFETDTNLNFQNLSVIGFRILLLKVAGFNLLMTLRLWSSRAKRSGSGVKQTLNFDLLKLAGDVESNPGPSRGHMTEYKPTVRLATRDDVPRAVRTLAAAFADYPATRHTVDPDRHIERVTELQELFLTRVGLDIGKVWVADDGAAVAVWTTPESVEAGAVFAEIGPRMAELSGSRLAAQQQMEGLLAPHRPKEPAWFLATVGVSPDHQGKGLGSAVVLPGVEAAERAGVPAFLETSAPRNLPFYERLGFTVTADVEVPEGPRTWCMTRKPGA
B6: 22103 (protein)
chain: MALPVTALLLPLALLLHAARPDIQMTQSPSSLSASVGDRVTITCKASDHINNWLAWYQQKPGQAPKLLIYGATTLETGVPSRFSGSGSGTDYTLTISSLQPEDFATYYCQQSWNTPWTFGQGTKLEIKRLEGQPKANPTVTLFPPSSEELQANKATLVCLISDFYPGAVTVAWKADGSPVKAGVETTKPSKQSNNKYAASSYLSLTPEQWKSHRSYSCQVTHEGSTVEKTVAPTECSPIKTDVITMDPKDNCSKDANDTLLLQLTNTSAYYMYLLLLLKSVVYFAIITCCLLRRTAFCCNGEKSRAKRSGSGATNFSLLKQAGDVEENPGPTSMDWIWRILFLVGAATGAHSFEQVQLQQPGAELVKPGASVKMSCKASGYAFSSYWINWMKQKPGQGLEWIGQIYPGDGDTNYNGKFKGRATLTADTSSSTAYMQLSSLTSEDSAVYFCARSITTVVGCAMDYWGQGTSVTVSSTRASTKGPSVFPLAPSSKSTSGGTAALGCLVKDYFPEPVTVSWNSGALTSGVHTFPAVLQSSGLYSLSSVVTVPSSSLGTQTYICNVNHKPSNTKVDKRVEPKSCEVKTDSTDHVKPKETENTKQPSKSCHKPKAIVHTEKVNMMSLTVLGLRMLFAKTVAVNFLLTAKLFFLRAKRSGSGVKQTLNFDLLKLAGDVESNPGPSRGHMTEYKPTVRLATRDDVPRAVRTLAAAFADYPATRHTVDPDRHIERVTELQELFLTRVGLDIGKVWVADDGAAVAVWTTPESVEAGAVFAEIGPRMAELSGSRLAAQQQMEGLLAPHRPKEPAWFLATVGVSPDHQGKGLGSAVVLPGVEAAERAGVPAFLETSAPRNLPFYERLGFTVTADVEVPEGPRTWCMTRKPGA

Tested on: RAJI cells
Experiment: JNG assay, co-culture with RAJI cells
Type: cell-based
Conditions: JNG cells expressing construct, co-culture with Raji
Summary of the method: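 Jurkat NFAT-GFP (JNG) cells stably transduced with SARs by lentivirus, with drug selection where the construct carried a resistance gene, then co-cultured with target cells at E:T ~1:2 for ~4–18 h. % GFP-positive cells measured by FACS against parental JNG; +/- to 5+ correspond to ~5–50% GFP-positive.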

Molecule	NFAT-GFP ASSAY: Raji
B1	Raji (3+) (refer to approximately 5%, 10%, 20%, 30%, 40% and 50% GFP positive cells)
B2	2+ (refer to approximately 5%, 10%, 20%, 30%, 40% and 50% GFP positive cells)
B3	3+ (refer to approximately 5%, 10%, 20%, 30%, 40% and 50% GFP positive cells)
B4	Raji (5+) (refer to approximately 5%, 10%, 20%, 30%, 40% and 50% GFP positive cells)
B5	Raji (5+) (refer to approximately 5%, 10%, 20%, 30%, 40% and 50% GFP positive cells)
B6	4+ (refer to approximately 5%, 10%, 20%, 30%, 40% and 50% GFP positive cells)
